Measured values published in the supplement of paper PMC9732359.
± gives the uncertainty stated by the source.

Test: protein stability index of a GFP-peptide fusion (yeast GPS) (PSI 1-4); higher = more stable; sorted into four equal gates, so the index is relative within each strain
In short: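 Mid-log yeast cultures in leucine-free medium, carrying a pooled plasmid library, were sorted into four equal gates by their GFP/Cherry fluorescence ratio. Each plasmid expressed Cherry along with GFP fused upstream of a tiled 17-residue yeast protein peptide. Plasmids recovered from each gate were PCR-amplified and Illumina-sequenced, with reads assigned to strains by barcodes. The protein stability index was obtained by summing each gate's read frequency weighted by its gate number.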

| Sequence | protein stability index (doa10∆) | protein stability index (pdr5∆) | protein stability index (san1∆) | protein stability index (ubr1∆) |
| --- | --- | --- | --- | --- |
| VEISLVNGAKNLVVSGP [FAS1] | 2.76 ± 0.15 | 2.6 ± 0.1 | 2.3 ± 0.1 | 2.51 ± 0.21 |
| VEKGTPLGKILLKGDNI [SME1] | 3.58 ± 0.088 | 3.43 ± 0.093 | 3.38 ± 0.14 | 3.59 ± 0.078 |
| VEKGVNPTKSKEILDNI [ECM29] | 3.26 ± 0.14 | 3.5 ± 0.12 | 3.37 ± 0.25 | 3.62 ± 0.14 |
| VEKNEIGKMYDEYLGSH [NNF1] | 3.38 ± 0.17 | 3.3 ± 0.15 | 3.28 ± 0.12 | 3.18 ± 0.086 |
| VENLTVAQECIAFLKKQ [SMC1] | 2.12 ± 0.065 | 2.47 ± 0.07 | 2.42 ± 0.086 | 1.98 ± 0.051 |
| VEQDEGQCRTELEGSFN [YCS4] | 3.38 ± 0.081 | 3.48 ± 0.098 | 3.12 ± 0.14 | 3.49 ± 0.067 |
| VESPDKNVRFRVLQLLA [YCG1] | 1.09 ± 0.098 | 1.4 ± 0.12 | 1.18 ± 0.13 | 1.65 ± 0.13 |
| VFENYVKKTGENEISSL [CDC53] | 3.14 ± 0.069 | 2.74 ± 0.072 | 2.9 ± 0.07 | 3.15 ± 0.042 |
| VFKATSSTDEESWFKAL [FAS1] | 2.92 ± 0.13 | 3 ± 0.15 | 2.75 ± 0.082 | 2.88 ± 0.084 |
| VFKLSTNLISKISLLRP [SWP82] | 2.11 ± 0.099 | 2.43 ± 0.1 | 2.13 ± 0.18 | 2.87 ± 0.088 |
| VFLKHSLSIKLATLHYQ [RPN6] | 2.22 ± 0.059 | 2.57 ± 0.067 | 1.71 ± 0.11 | 3.08 ± 0.055 |
| VFMLDTKRLGTPESVKP [RGR1] | 2.55 ± 0.075 | 2.64 ± 0.091 | 2.54 ± 0.11 | 2.8 ± 0.086 |
| VFTALLRLFINEEGDWS [ITC1] | 3.4 ± 0.29 | 2.08 ± 0.17 | – | – |
| VGDFLLQYANNAVISHA [SIN4] | 1.99 ± 0.074 | 1.79 ± 0.05 | 1.82 ± 0.074 | 1.49 ± 0.035 |
| VGRFSTISSADFIQNVG [ECM29] | 3.16 ± 0.1 | 2.65 ± 0.079 | 3.03 ± 0.08 | 2.72 ± 0.088 |
| VHDKIWCCRSGSAADTQ [PRE3] | 2.59 ± 0.07 | 2.92 ± 0.076 | 2.64 ± 0.081 | 2.65 ± 0.048 |
| VHESLVTQSNILSQQFD [SRB8] | 2.71 ± 0.07 | 3.09 ± 0.071 | 2.78 ± 0.054 | 3.02 ± 0.052 |
| VHEWEVSKPSLLHETND [PRP8] | 3.25 ± 0.11 | 3.05 ± 0.14 | – | 3.23 ± 0.072 |
| VHKERHDGGFDLVHIKD [RPS4A] | 1.48 ± 0.084 | 1.94 ± 0.069 | 1.61 ± 0.15 | 1.84 ± 0.05 |
| VIAHLTVEALDFREKAL [RET1] | 2.79 ± 0.11 | 2 ± 0.058 | 2.12 ± 0.1 | 2.57 ± 0.062 |
| VIDLEKIKFDESSKLMT [BRR2] | 1.27 ± 0.1 | 1.43 ± 0.086 | 1.18 ± 0.25 | 1.32 ± 0.053 |
| VIFNDNVTETYSVYLIH [SIR3] | 2.35 ± 0.12 | 2.42 ± 0.09 | 2.72 ± 0.072 | 2.28 ± 0.12 |
| VIFVERATPATLTELKD [SRB2] | 2.84 ± 0.091 | 2.02 ± 0.063 | 2.4 ± 0.12 | 3.23 ± 0.098 |
| VIITDGTLLREDDNTPA [YDL088C/ASM4] | 2.94 ± 0.077 | 2.9 ± 0.081 | 2.94 ± 0.056 | 3.01 ± 0.042 |
| VILGADSRTTTGAYIAN [PRE3] | 2.72 ± 0.13 | 3.41 ± 0.11 | 3.12 ± 0.16 | 2.81 ± 0.13 |

| Sequence | protein stability index (doa10∆) | protein stability index (pdr5∆) | protein stability index (san1∆) | protein stability index (ubr1∆) |
| --- | --- | --- | --- | --- |
| VILRKISMLVTQLQRGG [CSI1] | 1.31 ± 0.059 | 1.57 ± 0.056 | 1.55 ± 0.098 | 1.3 ± 0.045 |
| VIMALMLMSKIGDVDGL [POP5] | 1.49 ± 0.044 | 2 ± 0.053 | 1.84 ± 0.1 | 1.97 ± 0.047 |
| VITALKEPPRDRKKDKN [RPL12A] | 2.48 ± 0.08 | 2.61 ± 0.12 | 2.37 ± 0.1 | 1.85 ± 0.063 |
| VKAAINFSNVTDLTNNS [YIL149C/MLP2] | 2.49 ± 0.044 | 3.11 ± 0.049 | 3.35 ± 0.04 | 2.62 ± 0.04 |
| VKARHGGCDYIFSLLTG [CYT1] | 2.88 ± 0.1 | 3.02 ± 0.12 | 2.61 ± 0.086 | 2.72 ± 0.053 |
| VKEEYDIWQSRDQGNDS [YIL149C/MLP2] | – | 3.5 ± 0.19 | 3.33 ± 0.074 | 3.34 ± 0.11 |
| VKFLVYQGVYSMGSILL [YML031W/NDC1] | 1.65 ± 0.091 | 1.43 ± 0.088 | 1.28 ± 0.099 | 1.7 ± 0.17 |
| VKIHSQESLLSRTFDKY [SRP72] | 2.92 ± 0.053 | 2.79 ± 0.071 | 2.96 ± 0.055 | 2.57 ± 0.041 |
| VKIIRKSETSGRYASYR [RPB5] | 3.09 ± 0.076 | 3.04 ± 0.05 | 3.01 ± 0.053 | 3.09 ± 0.045 |
| VKKASGEIVSINQINEA [RPL20A] | 2.89 ± 0.1 | 2.82 ± 0.092 | 2.81 ± 0.062 | 2.79 ± 0.066 |
| VKKAVTVHSKSRTRAHA [RPL19A] | 3.2 ± 0.1 | 3.2 ± 0.13 | 2.67 ± 0.12 | 3.16 ± 0.1 |
| VKNTNANPVVATDPVAA [SWP82] | 2 ± 0.1 | 2.91 ± 0.1 | 2.5 ± 0.091 | 2.47 ± 0.061 |
| VKRYRLAPTQLSAEYLV [SIN4] | 2.44 ± 0.062 | 2.23 ± 0.056 | 2.3 ± 0.067 | 2.71 ± 0.043 |
| VKSVNDPSQNRLTGSLL [RPC37] | 3.16 ± 0.089 | 3.48 ± 0.11 | 3.04 ± 0.11 | 3.08 ± 0.048 |
| VKWVHMIIDEGHRMKNA [SNF2] | 1.81 ± 0.12 | 1.91 ± 0.075 | 1.77 ± 0.13 | 3.11 ± 0.2 |
| VLADALNAINNAEKTGK [RPS22A] | 2.92 ± 0.056 | 3.27 ± 0.059 | 2.67 ± 0.06 | 2.97 ± 0.049 |
| VLEDCRHLPMYTEFIDS [ITC1] | 2.34 ± 0.1 | 2.71 ± 0.075 | 2.77 ± 0.12 | 2.99 ± 0.066 |
| VLGTPDQKIWPYLEKYP [SSN3] | 2.42 ± 0.077 | 1.72 ± 0.053 | 2.3 ± 0.068 | 2.13 ± 0.059 |
| VLIKKGQSAGKLAAIVE [RPL14A] | 2.99 ± 0.2 | 3.14 ± 0.16 | – | 2.77 ± 0.18 |
| VLKTLEYKLATYGVPGS [NUT1] | 2.75 ± 0.068 | 2.54 ± 0.066 | 3.27 ± 0.045 | 2.18 ± 0.08 |
| VLLVEKYGAEYDLVDNK [NAS6] | 1.9 ± 0.22 | – | 3 ± 0.22 | 3 ± 0.19 |
| VLNEDDLAFGGEANKHH [RPN5] | 3.25 ± 0.09 | 3.13 ± 0.089 | 3.25 ± 0.057 | 3.48 ± 0.12 |
| VLSINPDMYERKVENIR [MED7] | 2.81 ± 0.08 | 3.03 ± 0.086 | 2.79 ± 0.052 | 2.79 ± 0.062 |
| VLSQFERSYPSEFANQN [ROX3] | 2.26 ± 0.098 | 3.15 ± 0.097 | 2.63 ± 0.15 | 2.78 ± 0.11 |
| VLSSVREPDFWVIRKQR [MED6] | 3.52 ± 0.12 | 3.44 ± 0.1 | 3.54 ± 0.12 | 3.11 ± 0.12 |
